Assay results taken from the supplement of paper PMC9732359.
± gives the uncertainty stated by the source.

Assay: protein stability index of a GFP-peptide fusion (yeast GPS) (PSI 1-4); higher = more stable; sorted into four equal gates, so the index is relative within each strain
In short: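 Tiled 17-residue peptides from yeast proteins were fused downstream of GFP on a plasmid that also expresses Cherry, and the pooled library was carried in yeast. Mid-log cultures grown in leucine-free medium were sorted into four equal gates by GFP/Cherry fluorescence ratio. Plasmids from each gate were PCR-amplified and Illumina-sequenced, and reads were assigned to strains by barcodes. Each peptide's protein stability index is the sum, over gates, of the gate's read frequency multiplied by its gate number.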

Row | Sequence | protein stability index (doa10∆) | protein stability index (pdr5∆) | protein stability index (san1∆) | protein stability index (ubr1∆)
1 | IGQSEELSDKEIYTVED [ISW2] | 3.35 ± 0.13 | 3.46 ± 0.14 | 3.31 ± 0.17 | 3.44 ± 0.13
2 | PDCKIKIAHGTTTLAFR [PRE2] | 2.64 ± 0.077 | 2.72 ± 0.056 | 2.65 ± 0.066 | 2.71 ± 0.064
3 | CKEVGITAVHVKIRATG [RPS14A] | 1.93 ± 0.043 | 1.82 ± 0.039 | 1.81 ± 0.085 | 1.89 ± 0.035
4 | VSFDFNGVPGQALDAVR [MED8] | 3.1 ± 0.077 | 3.36 ± 0.079 | 3.32 ± 0.079 | 3.36 ± 0.061
5 | EGEAKQKRNAHGYFLQD [ITC1] | 3.18 ± 0.065 | 3.4 ± 0.072 | 3.35 ± 0.035 | 3.32 ± 0.043
6 | SQTPSFNTNSSFTPSTV [YOR098C/NUP1] | 2.4 ± 0.033 | 2.671 ± 0.025 | 2.52 ± 0.033 | 2.898 ± 0.026
7 | KTYGISDDIISQVDPIT [FAS2] | 1.71 ± 0.16 | 1.1 ± 0.12 |  | 1.06 ± 0.13
8 | TQSYNNQNTLKEISARR [POP1] | 2.29 ± 0.041 | 2.48 ± 0.035 | 2.24 ± 0.063 | 2.78 ± 0.037
9 | SDRSLSEDLFADGLLQV [BRR2] | 3.04 ± 0.28 |  |  | 
10 | LGLLTPEVVELCQKSPV [FAS2] | 2.28 ± 0.071 | 2.73 ± 0.066 | 2.11 ± 0.12 | 2.93 ± 0.081
11 | LNDHIDDFEVNVASLVR [GRR1] | 3.29 ± 0.087 | 3.26 ± 0.13 | 2.31 ± 0.25 | 3.08 ± 0.087
12 | VFVGTIFAGAFVFQTVF [QCR9] | 1.82 ± 0.061 | 1.4 ± 0.049 | 1.23 ± 0.11 | 1.5 ± 0.043
13 | PSLKFKPKAVARKSKEE [RPC53] | 2.82 ± 0.12 | 2.65 ± 0.086 | 2.43 ± 0.07 | 2.88 ± 0.077
14 | KKRKIHNGREGSIEEPE [MCD1] | 3.26 ± 0.066 | 3.24 ± 0.06 | 3.17 ± 0.051 | 3.27 ± 0.042
15 | FQTIFSKQDLIHSLIPV [SIN4] | 1.93 ± 0.046 | 1.9 ± 0.064 | 1.66 ± 0.11 | 1.7 ± 0.05
16 | TWIHSEIEELKSSIQNL [SMC3] | 2.27 ± 0.11 | 2.3 ± 0.068 | 2.29 ± 0.21 | 3.08 ± 0.11
17 | ASLVDYVQVRQPIFVAH [RPS5] | 1.99 ± 0.1 | 1.98 ± 0.069 | 2.1 ± 0.14 | 1.67 ± 0.11
18 | EKPAPVRTHMRNMIIVP [RPS15] | 1.13 ± 0.064 | 1.17 ± 0.081 | 1.21 ± 0.19 | 1.14 ± 0.095
19 | VSTRAIDLLWKGKTPKN [PRP28] |  | 1.48 ± 0.12 | 1.18 ± 0.12 | 1.16 ± 0.14
20 | CKSLISENEDTKDLLSK [CSE2] | 3.23 ± 0.098 | 3.21 ± 0.093 | 3.1 ± 0.066 | 3.22 ± 0.12
21 | YFYDLDVLKDGENNINF [BRN1] | 3.57 ± 0.22 | 3.4 ± 0.15 | 3.54 ± 0.079 | 3.29 ± 0.11
22 | VLQEYRLTKQAFDWVLS [RPO21] | 2.59 ± 0.068 | 2.48 ± 0.069 | 2.89 ± 0.073 | 2.78 ± 0.046
23 | AFNDSCVNLSLFDARFE [SRB8] | 3.11 ± 0.09 | 3.15 ± 0.059 | 3.39 ± 0.091 | 3.14 ± 0.051
24 | VPTVPPSQSEEQKGQMA [MED4] | 2.78 ± 0.12 | 2.82 ± 0.058 | 3 ± 0.067 | 2.6 ± 0.091
25 | LKSHYYQTCKNSEYLKR [SMC2] | 1.54 ± 0.067 | 1.5 ± 0.057 | 1.36 ± 0.091 | 1.85 ± 0.046
26 | ASLVPEGNQGSLQEDVS [MED8] | 3.19 ± 0.096 | 3.24 ± 0.087 | 2.9 ± 0.048 | 2.41 ± 0.097

Row | Sequence | protein stability index (doa10∆) | protein stability index (pdr5∆) | protein stability index (san1∆) | protein stability index (ubr1∆)
27 | LLSQFGIKVLPETCLFV [YML103C/NUP188] | 2.1 ± 0.075 | 1.55 ± 0.058 | 1.18 ± 0.14 | 1.33 ± 0.059
28 | VTPIIDGIVVKNAVVRS [ARP7] | 1.51 ± 0.074 | 1.92 ± 0.082 | 1.61 ± 0.13 | 1.74 ± 0.16
29 | KNYLKNYILNFKQSNSE [CDC53] | 2.6 ± 0.044 | 1.95 ± 0.043 | 2.34 ± 0.083 | 1.89 ± 0.037
30 | ITSDALEGITTTIDSLN [SMC3] | 2.45 ± 0.062 | 2.93 ± 0.084 | 2.9 ± 0.08 | 2.99 ± 0.07
31 | EGDELENKTKKDNDKNL [SRB4] | 3.33 ± 0.078 | 3.2 ± 0.077 | 3.23 ± 0.055 | 3.27 ± 0.077
32 | MKQPYVFVKKHHELIKV [SSN2] | 1.33 ± 0.072 | 1.27 ± 0.051 | 1.21 ± 0.08 | 1.2 ± 0.051
33 | DHKRFIVFHNEFSEHTF [DIS3] | 2.55 ± 0.042 | 2.92 ± 0.048 | 2.85 ± 0.046 | 3.02 ± 0.038
34 | AVHVTVRGPKAEEILER [RPL11A] | 2.99 ± 0.11 | 2.98 ± 0.094 | 2.92 ± 0.12 | 3.05 ± 0.074
35 | FVKPGTALDAEGAARGT [DIS3] | 3.1 ± 0.13 | 3.4 ± 0.2 | 3.24 ± 0.095 | 3.15 ± 0.097
36 | IDPDTKAPNAVVITFEK [RPB11] |  | 3.22 ± 0.17 | 3.09 ± 0.094 | 2.93 ± 0.15
37 | LYVPHSENRFPGWDFET [RPL5] | 2.44 ± 0.12 | 2.89 ± 0.069 | 2.21 ± 0.1 | 2.68 ± 0.13
38 | EKYGKQVYDLLKRFPKM [BRR2] |  |  | 2.99 ± 0.19 | 3.31 ± 0.14
39 | SILDDIKLSLKDKTKNI [SMC4] | 2.88 ± 0.06 | 2.94 ± 0.059 | 2.8 ± 0.06 | 3 ± 0.062
40 | TAKKDMSSTTPKLESVK [SNF12] | 3.31 ± 0.056 | 3.35 ± 0.05 | 3.1 ± 0.042 | 3.27 ± 0.04
41 | KLLFQELMAMNITPRLY [RPB2] | 1.27 ± 0.1 | 1.39 ± 0.066 | 1.24 ± 0.13 | 1.43 ± 0.048
42 | REDTPLSQNESTRASTV [ISW2] | 2.96 ± 0.067 | 3.11 ± 0.058 | 2.96 ± 0.052 | 2.97 ± 0.048
43 | AVALAASDLVLIVIDVV [SNU114] | 2.08 ± 0.052 | 2.5 ± 0.06 | 2.75 ± 0.094 | 2.13 ± 0.05
44 | RENIAMLKRFFPGVKGL [SMC1] | 2.5 ± 0.17 | 2.49 ± 0.2 | 2.01 ± 0.13 | 2.43 ± 0.15
45 | LTLMEKAAFEDLKSKGL [FAS1] | 3.03 ± 0.078 | 3.29 ± 0.088 | 3.2 ± 0.054 | 3.26 ± 0.052
46 | SDKESNAYGFIEWCSRC [YJL039C/NUP192] | 2.98 ± 0.066 | 2.79 ± 0.067 | 2.97 ± 0.053 | 2.73 ± 0.063
47 | GYFIINGSEKVLIAQER [RPB2] | 3.14 ± 0.21 | 2.94 ± 0.17 | 3.16 ± 0.18 | 2.15 ± 0.26
48 | KPALGSLGSSSTTASGT [YGR119C/NUP57] | 3.22 ± 0.085 | 3.3 ± 0.084 | 3.05 ± 0.062 | 3.06 ± 0.1
49 | SMDTKKKHKQKKVLEID [BRN1] | 3.36 ± 0.063 | 3.32 ± 0.057 | 3.32 ± 0.039 | 3.33 ± 0.044
50 | TSLFGSSSAQQTKSNGT [YJL041W/NSP1] | 3.23 ± 0.11 | 3.4 ± 0.098 | 2.71 ± 0.13 | 3.19 ± 0.073
51 | IYNSTDSNSEILNFLNQ [YML103C/NUP188] | 3.1 ± 0.2 | 2.72 ± 0.067 | 2.71 ± 0.055 | 2.9 ± 0.076
